Here are results for 1 substance from patent US20180057589A1.

In experiment [1] the target is mouse Notch1 NRR protein (mouse) (UniProt Q01705). The experiment is described as follows: ELISA on captured Flag-tagged NRR protein.
Experiment [2] addresses human Notch1 NRR protein (human) (UniProt P46531). The experiment is described as follows: ELISA on captured Flag-tagged NRR protein. In general terms: ELISA stands for enzyme-linked immunosorbent assay.
The target of experiment [3] is hamster Notch2, endogenous on K1-CHO cells (hamster). The experiment is described as follows: FACS dot plot α-Myc (PE) against α-NRR1 (FITC), untransfected K1-CHO cells, +Dox, panel 1 (other quadrants: upper left 0.15, upper right 0.034, lower left 99.7).
Experiment [4] concerns the target N-myc-Notch2 on K1-CHO cells. Nature of the experiment: FACS dot plot α-Myc (PE) against α-NRR1 (FITC), K1-CHO myc-N2 cells, -Dox (leaky expression per the text), panel 6 (other quadrants: upper left 18, lower left 81.8, lower right 0.1).
Experiment [5] deals with N-myc-Notch1 on K1-CHO cells. Nature of the experiment: FACS dot plot α-Myc (PE) against α-NRR1 (FITC), K1-CHO myc-N1 cells, -Dox (transgene not induced), panel 5 (other quadrants: upper left 0.72, lower left 99, lower right 0.14).
Experiment [6] has as its target N-myc-Notch1 on K1-CHO cells. Nature of the experiment: FACS dot plot α-Myc (PE) against α-NRR1 (FITC), K1-CHO myc-N1 cells, +Dox, panel 2 (other quadrants: upper left 17.1, lower left 26.2, lower right 0.077).
Experiment [7] addresses Notch1 on stably transfected NIH-3T3 cells. Nature of the experiment: cell-based or functional assay.
Experiment [8] concerns the target N-myc-Notch2 on K1-CHO cells. The experiment is described as follows: FACS dot plot α-Myc (PE) against α-NRR1 (FITC), K1-CHO myc-N2 cells, +Dox, panel 3 (other quadrants: upper left 58.6, lower left 41.3, lower right 0.026).
Experiment [9] concerns the target mouse Notch1 NRR protein (mouse) (UniProt Q01705). The experiment is described as follows: SPR. Background: Surface plasmon resonance follows binding to a sensor surface in real time, without labels.
Experiment [10] deals with human Notch1 NRR protein (human) (UniProt P46531). The experiment is described as follows: SPR.
The target of experiment [11] is hamster Notch2, endogenous on K1-CHO cells (hamster). Nature of the experiment: FACS dot plot α-Myc (PE) against α-NRR1 (FITC), untransfected K1-CHO cells, -Dox, panel 4 (other quadrants: upper left 0.13, upper right 0.041, lower left 99.7).

human Notch1 NRR protein (human), sequence (P46531 1446-1733 limits assumed): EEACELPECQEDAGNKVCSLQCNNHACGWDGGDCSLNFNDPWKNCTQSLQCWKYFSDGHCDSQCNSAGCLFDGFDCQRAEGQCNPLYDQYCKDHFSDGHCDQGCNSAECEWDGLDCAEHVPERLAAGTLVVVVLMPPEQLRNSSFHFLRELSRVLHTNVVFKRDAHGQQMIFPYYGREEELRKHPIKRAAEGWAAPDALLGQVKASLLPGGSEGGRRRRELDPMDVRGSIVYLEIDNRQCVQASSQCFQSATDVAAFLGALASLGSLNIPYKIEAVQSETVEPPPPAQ
mouse Notch1 NRR protein (mouse), sequence (Q01705 1446-1723 limits assumed): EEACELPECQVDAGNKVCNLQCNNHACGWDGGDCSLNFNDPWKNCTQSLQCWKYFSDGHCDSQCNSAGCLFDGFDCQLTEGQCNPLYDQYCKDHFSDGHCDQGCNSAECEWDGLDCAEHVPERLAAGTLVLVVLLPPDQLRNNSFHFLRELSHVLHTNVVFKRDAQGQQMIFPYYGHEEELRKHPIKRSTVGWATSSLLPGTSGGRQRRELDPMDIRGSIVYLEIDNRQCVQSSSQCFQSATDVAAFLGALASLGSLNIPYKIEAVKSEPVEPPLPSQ

As usually defined, the EC50 is the concentration needed to bring the measured effect to its halfway point. In general, Kd refers to the concentration at which binding is half-saturated. As to anti-NRR1 (antibody), the EC50 in experiment [1] and in experiment [2] was 0.1 µg/mL throughout. Also, the % of cells in the α-Myc-negative / α-NRR1-positive quadrant (lower right) is 0.082% in experiment [3] and 0.12% in experiment [11]. The % of cells in the α-Myc-positive / α-NRR1-positive quadrant (upper right) in experiment [4] turned out to be 0.13%; in experiment [5], 0.097%; in experiment [6] it was 56.6%; in experiment [8] it was 0.064%. The Notch reporter (luciferase) in Jag1 co-culture assay: antibody concentration for complete inhibition of Notch1 signaling in experiment [7] lay within 80 to 400 ng/mL. The Kd in [9] and in experiment [10] was 3 nM in each case.
